Reference: a protein production outcome set (Wang et al. 2014)

Test: label from the status in PepcDB records
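Further: failed if final PepcDB status was selected cloned or expressed and not failed if soluble or beyond.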

Sequence	protein production
MKYQNEGQHRSPWALIVFLALSMAVTSPATRAQSSDLPSIGGSGGLISGQMEADIGQQVMASIRRSAPQLQDPLVYDYLSAIIYRLVPSAPLDNRDLKLVLIDSPAINAFAVPGGVVGVNGGLFLNAATEQQFASVLAHELAHLSQRHFARRMQQQETSAPLTLAGMIAGIVLSAVTQSDIGIAAIAGTQAMAVQNMLAYSRSHEQEADRVGMDILASAGMDPRGMPEMFEIMMRQNRLQGNRLPEYLSTHPLTQNRVADTRNRAEQYPDTRVQDGQEYHLVRSRLQVHYSESPETAIETFEAYLAREDAQRNDAIRYGLAVAYQESRRYEKAEQLMRELLKANPGRITFQVSLAEVLLSQKRYADARALMQEALARNPGNYPITSTLAAIEIADGNGAAAADYLRELTRRLPSQEQLWLRLAEAEGMARNIVGVHRARAEYDVLMGDLKSAQRQLRQAQEKLPAGSAERQVVSERLGELTNRLQAREAG	failed
MNDRVIQNSRQGERVLAALSYFSIFFAPIILPIFIWIFADRPTSNHAAKSLAYHIITYIGPILLILSIGFGGVLINNSSTITSVIMITVAIILFVITVWYTIKNIYRGVRVLISEHAYFHP	failed
MTHTVIVPGVGGSEQHHWQSWLQRQLSSCSRVEQNDWNLPVLSDWVSHLISHVQQLEQPVQIVAHSFGCLTTLAALEQHPQLINQVKHITLVAPANPERFGEAGFARDSQTDYRAYFHQLKPSIKTQLIISENDPWLDFEEALQLAKSWQVRATNLGKVGHINVASGFGPFPEIFDYMLP	failed
VSRDENSWLIDGATPLEEVTRVLDIAYFPDEENYETISGFMMYMLRKIPKKTDSVVYGKYKFEVIDTENFKIDQILVSLVKEQE	not failed
MDSKIDFSSYSLNDLYSSAESIDRDVYPERAKEIDGLIRQKEAEFPEEIDTTKDIGEKATKSDRLMAAIIDGVIGIISLVPVIFYVGFDSFKEPSLSLLGILFIYGVFVTMVLHGYLLYYYGQTIGKNYMSIRIENLDGTKASLATIYFKRMLPMQLIGLIPSFGQFISGIVNPLFIFGKQRRCLHDYLAKTKVSYTGT	failed
DVKEFCKKSLRVRKRQLKDLLYSLEDDNKELFERVIKLFENFKNRDEIFYEKISEEIVWTVKKNILFVNIEEGILKPQSKLDLLAIREILDEIKT	failed
MDESAALRAFQDALRTQRPEFGQFFLARLLGLDISYPDGQCLIVFEPQDFLFNPQGSLHGGIIATVMDISMGHLLNHVQGAGLTLEMKTQYLKAVRQGTVYCRGEFLQRGRSVSFLKSTLTDAQGEPLAMATSTWKALSPLEHHHHHH	not failed
MVWGKGLARRLYGLTGVVWSKYLDIDERGRLIVKLKGYKIDIAKLVSDKQLPGAHIRILPIIRYMMDQVYEAFMEAFRKFGYKGAFKPVYPLKSNSTPIVVDTIWRYGIKYSWGFNAGTYPEVKLISKYINEKPRLLVVDGIKDNKLLDLLSKMCDSWEIIVDIESMRDADLLSKYQDLNIGLRVKVTSKSSGLWSHSSGLDSKFGLLINTLDEMVEKHPWVPNRTVLLHVHAGSQITDKNRLEDIIRETIILYNNLVKTGFKNIRYIDFGGGLAYPYIEASNHVFSANYSLNEYAEILVKELVKSAENTPDIVFEGGRYIVAPHRITVTKIIDTRPYSTSDRGETSYPIVEEIKNTENIKELVYVSRKAREVITRLMLKFPINIESRRILEKLLTSINEAITSKAYEIIHRDNDKALEELIKTPNYVLEELVSPTRRFFASFSLFSHLPDTIIADQYFKIIPLQRLNEKPEVLGVISDLTCDSMGEYSSFITFLPNNIEYETEDLFTSLDHKLMFIPGKTLRLKGVPLHIPRKNEDYYIAFLDTGAYQDMLSMNHNLLNGYPEIIIDIINDNLKIIYENLESAENYPL	failed
MRLAYVKNHEIYGEKLLGLTLRERIEKTLQRAGFDVRFFDELSLEEAEDYLIILEPVLILERDLLLEGRKILVSDGFTVGYFFGGDFRTVFDGNLQSSIEKYLSLNNLESYEIWAIKLSNDNLKTAEKLLLSSLIKAKRTGLKPAYYDGWIAREINRKVSLRISRLLADTSVTPNQITVFSFFLSLVGSALFLLNSYLTTLLAGVIIQLHSIIDGCDGEIARLKFMESKYGAWLDGVLDRYSDFIIVFSITYVLSASNPVYWIIGFLAAFASLMIAYTGDKFVAAYMRTYSPEGFAIPITRDFRLLIIFACSVVNLPSLALVIIALLGNFEALRRIVALRSYTN	failed
MMELDLPATIKRDMKFRYLLIIVPLLFPAHIFGQELPDLGDVSQASVTPHQERQIGIQIMREIRADSSYLDDPEIADYLTRLGNRLIAASGQTNPDNPFEFFAINDSSINAFALPGAFVGFHSGLITAAQNESELAGVMAHEIAHVTQKHLARMISGTSYLGLLGSIAALAIAILASRSNPNAGQAVLATAQASAIQSQLNFTRKHEKEADRVGFNMLIKAGFDPHGMSSFFERMQHASRYYENGMPSYLMTHPVTHERIADIQNRTQELGYRQVPDSLEFHLVRAKIRASRGNPASVINEFKARLQDKRYINEIAEQYGLIQALLRARQFKQADEELNTLYRTIQSDSSAQSLKNHRLGKSIQVDGDYLQSAAMIETLAARVKFASGQTDDAFRLYQSALQSFPHYRALVYGYADALLQHKDAQAALDFINGQSQFIHDDIRLYRLTAQCHAALGNALLQHQAEAEALIREGNLRAAIEQLQIALRHKHDNFYQLSSVEARLRQIKEFVAAEKEKK	failed
MNAKLEVNGELVKESYVYLLSRYLVLRQENFDTKEDKIPYNTLKHNSVAPADANFVNPNFDVVYSEAWIAVDDDNAVILEVPEIKNRYYTVQLLDGWGEVVTNINERNYPDHPYGKFAFVKKGTNPSVPSDAVKIELPSEKVKVLLRVEQKDDPEGAVKLQKAFKFDAPDNIKIKEPLEIPHFTNADFLLEEIYSNLEELLATYPDKMPKAAEFQDKARQVAAYIELGDEQKAEVRNLIVKEAIPYFTDGAKGFGTQKGGWSVTYVAGAFENDILARAIINYGGIWANSIQEALYFIGQQGTDGELLSGDKVYKIHFPKDQLPNGLAEAFWSVTLYGVPDYHVIPNKLNKFSINDYTGPKTNEDGSLSLYIAAEKPADVDPGNWLPSKAGKGFSLNFRLYVPKKEVLEGKVFLPPLEVL	failed
TGALMASSPQDIKFQDLVVFILEKKMGTTRRALLMELARRKGFRVENELSDSVTHIVAENNSGSDVLEWLQAQKVQVSSQPELLDVSWLIECIGAGKPVEMTGKHQL	not failed
MARLIIPCRSSSLARVNLLGLLSRAPVPVRSSCLRSSANRLTQHRPFLTSEAICLRKNRFLPHSVDTHKQNSRRLICSVATESVPDKAEDSKMDAPKEIFLKNYTKPDYYFETVDLSFSLGEEKTIVSSKIKVSPRVKGSSAALVLDGHDLKLLSVKVEGKLLKEGDYQLDSRHLTLPSLPAEESFVLEIDTEIYPHKNTSLEGLYKSSGNFCTQCEAEGFRKITFYQDRPDIMAKYTCRVEGDKTLYPVLLSNGNLISQGDIEGGRHYALWEDPFKKPCYLFALVAGQLVSRDDTFTTRSGRQVSLKIWTPAEDLPKTAHAMYSLKAAMKWDEDVFGLEYDLDLFNIVAVPDFNMGAMENKSLNIFNSKLVLASPETATDADYAAILGVIGHEYFHNWTGNRVTCRDWFQLSLKEGLTVFRDQEFSSDMGSRTVKRIADVSKLRIYQFPQDAGPMAHPVRPHSYIKVYEKVWLFTNSVLLYAGAEVVRMYKTLLGTQGFRKGIDLYFERHDEQAVTCEDFFAAMRDANNADFANFLQWYSQAGTPVVKVVSSYNADARTFSLKFSQEIPPTPGQPTKEPTFIPVVVGLLDSSGKDITLSSVHHDGTVQTISGSSTILRVTKKEEEFVFSDIPERPVPSLFRGFSAPVRVETDLSNDDLFFLLAHDSDEFNRWEAGQVLARKLMLNLVSDFQQNKPLALNPKFVQGLGSVLSDSSLDKEFIAKAITLPGEGEIMDMMAVADPDAVHAVRKFVRKQLASELKEELLKIVENNRSTEAYVFDHSNMARRALKNTALAYLASLEDPAYMELALNEYKMATNLTDQFAALAALSQNPGKTRDDILADFYNKWQDDYLVVNKWFLLQSTSDIPGNVENVKKLLDHPAFDLRNPNKVYSLIGGFCGSPVNFHAKDGSGYKFLGDIVVQLDKLNPQVKTPKLTCVFAVTYIM	failed
MNAADRVMQSYGRCCASTGFFDDFYRHFLASSPQIRAKFATTDMTAQKHLLRAGIMNLVMYARGMSDSKLRALGASHSRAALDIRPELYDLWLDALLMAVAEHDRDCDAETRDAWRDVMGRGIAVIKSYY	not failed
MTGFAPQAGLPSHSVQVADHFDGNSPRGSPMSSGGHPVDRNRGLQPQKEAFSGPAAGKPFHPQALSKYSRHYSPEDELSAEAQPIAAYKIVSQSNKQLLAGSVSVTSLSSRTTELATADPFALAPFPSKAGKQKP	failed
MGEKPWQPLLQSFEKLSNCVQTHLSNFIGIKNTPPSSQSTIQNPIISLDSSPPIATNSSSLQKLPLKDKSTGPVTKEDLGRATWTFLHTLAAQMTILSRMYPCRECADHFKEILRSNPAQAGSQEEFSQWLCHVHNTVNRSLGKLVFPCERVDARWGKLECEQKSCDLHGTSMDF	failed
MALRQKLGWSEGDLMRSDAKPCSRLMKQTAAIFTVGGALGFWVLCRLHYGPRITVPRSLRWAGCGALSVSTSTAMLVRLFSPECEPQNIAAYDNIKTPQASLP	failed
MSVWLLQMKTNAIITDITKSIVKMDRILVYRHTNPDPDAIGAQFGLVALLKAAYPEKLVVAMAPVPGHLAWIDTTDEQLVTPQATDLVIAVDCANHERLAGELPTGAFVIKIDHHPNHDPYGQLNWVDETYSSCSEMIYELAQAGCFTVTAAVATKLYAGIIGDTVRFSTPETSTRTLKIASALAATDIDIATISHHEMDLT	failed
MCPKNASYYGNRAATLMMLGRFREALGDAQQSVRLDDSFVRGHLREGKCHLSLGNAMAACRSFQRALELDHKNAQAQQEFKNANAVMEYEKIAETDFEKRDFRKVVFCMDRALEFAPACHRFKILKAECLAMLGRYPEAQSVASDILRMDSTNADALYVRGLCLYYEDCIEKAVQFFVQALRMAPDHEKACIACRNAKALKAKKEDGNKAFKEGNYKLAYELYTEALGIDPNNIKTNAKLYCNRGTVNSKLRKLDDAIEDCTNAVKLDDTYIKAYLRRAQCYMDTEQYEEAVRDYEKVYQTEKTKEHKQLLKNAQLELKKSKRKDYYKILGVDKNASEDEIKKAYRKRALMHHPDRHSGASAEVQKEEEKKFKEVGEAFTILSDPKKKTRYDSGQDLDEEGMNMGDFDPNNIFKAFFGGPGGFSFEASGPGNFFFQFG	failed
METQDHTLYVLLGPTGVGKTDLSLDIAERLGSPIISADSRQIFRELPIGTAAPTPEQRAKVPHLFVGTHSVRDYYSAGMYEVEVLEALKELFRKYRGVLLTGGSMMYIDAVCRGIDDIPDPFPEVREELYARYAAEGLDGILAQLRLLDPDYYAKVDRRNYKRVIHGLEICLSTGRPFSSFHRHEAKERPFRIVKIGLYREREELCKRIDARVLEMMEQGLEEEARAVYPLRHLNALNTVGYKEMFEYFDGSIDRAEAVRRIQRNSRVYARKQMTWFRRDSTIRWFHPEADKGTVLTLVT	failed
MMISDLPEDMVEEILSRVSIISLGALRWNDLSKARVICKAEARQQFAGFMIKGSKEVSNTRLVVWNPYLGKIWSIQHRSAYHSENRYTLGYDNNRKPQNLEEQLAVLLHNWGAFAMEIWVTTNIEPNAKKHAVIFDSSLSCGSVACIIGETGNLRTVDLGVAAVPYRQLPVCSYAPSLEQINQGQELPLIGLTQIFMEQHKYWVSTFLDNLITKYG	failed
MNRIKEVLEEKGIKQTWLAEKLGKSFSIVNSYVCNRRQPSLDILFEIAKILEVDVRVLIGTKENRQKSK	not failed
